Test results reported in paper PMC12780214 (NPJ Vaccines, 2025).

Assays:
[1] = target: T1, NiVM G head domain (residues 176-602) (Nipah virus Malaysia (NiVM), UniProt Q9IH62); assay: BLI
[2] = target: NiVM G ectodomain (residues 96-602) (Nipah virus Malaysia (NP_112027), UniProt Q9IH62); assay: ELISA
[3] = target: MojV G head domain (residues 176-625) (Mòjiāng virus (YP_009094095), UniProt W8TIR7); assay: ELISA
[4] = target: LayV G head domain (residues 176-625) (Langya virus (UUV47206), UniProt A0AAX3C924); assay: ELISA
[5] = target: T1, NiVM G head domain (residues 176-602); assay: cryo-EM structure
[6] = target: T2, NiVM G head domain (residues 176-602) (Nipah virus Malaysia (NiVM), UniProt Q9IH62 176-602); assay: BLI
T2 sequence: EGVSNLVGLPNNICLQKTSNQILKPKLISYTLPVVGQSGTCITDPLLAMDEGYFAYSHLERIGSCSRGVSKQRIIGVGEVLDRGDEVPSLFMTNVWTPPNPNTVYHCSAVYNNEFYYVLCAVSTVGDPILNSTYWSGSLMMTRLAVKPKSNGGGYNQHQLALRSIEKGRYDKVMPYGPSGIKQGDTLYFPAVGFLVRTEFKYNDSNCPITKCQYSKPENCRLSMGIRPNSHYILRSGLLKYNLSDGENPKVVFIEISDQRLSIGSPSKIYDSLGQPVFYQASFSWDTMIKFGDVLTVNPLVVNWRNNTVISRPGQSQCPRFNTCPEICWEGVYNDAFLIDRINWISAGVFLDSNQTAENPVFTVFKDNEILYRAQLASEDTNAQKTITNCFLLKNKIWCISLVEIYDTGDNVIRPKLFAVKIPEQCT

[7] = target: deglycosylated NiVM G head domain without the His-tag (for crystallization) (Nipah virus Malaysia (NP_112027), UniProt Q9IH62); assay: crystal structure
[8] = target: HeV G head domain (residues 176-605) (Hendra virus (NP_047112, isolate …, UniProt O89343)); assay: ELISA
Chain of HeV G head domain (residues 176-605) (Hendra virus (O89343 176-604): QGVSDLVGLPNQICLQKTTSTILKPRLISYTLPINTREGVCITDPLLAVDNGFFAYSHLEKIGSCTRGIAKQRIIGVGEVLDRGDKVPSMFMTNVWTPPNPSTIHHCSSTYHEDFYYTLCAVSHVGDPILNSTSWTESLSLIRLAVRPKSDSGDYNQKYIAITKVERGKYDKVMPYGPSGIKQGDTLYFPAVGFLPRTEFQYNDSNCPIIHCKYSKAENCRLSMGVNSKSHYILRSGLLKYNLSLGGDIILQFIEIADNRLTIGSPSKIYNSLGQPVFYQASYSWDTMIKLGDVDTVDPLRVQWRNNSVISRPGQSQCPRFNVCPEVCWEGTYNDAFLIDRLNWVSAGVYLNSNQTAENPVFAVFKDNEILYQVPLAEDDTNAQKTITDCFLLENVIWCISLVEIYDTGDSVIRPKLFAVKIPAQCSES

B1: S1E2 mAb (IgG) (antibody, V domains shown)
VH: QMQLQESGPGLVKPSQSLSLTCSVTGYSITSGYYWNWIRQFSGNKLEWMGYINHDGSKNYNPSLKNRISITRDTSKNQFFLKLNSVTTEDTATYYCARDYGSYYYPMDYWGQGTSVTVSS
VL: EIVLTQSPPIMSASPGEKVTITCSASSSVTFMHWFQQKPGTSPKLWIFSTSNLASGVPARFSGSGSGTSYSLTISRMEAEDAATYYCQQRSSYPFTFGSGTKLEIK
[1]
  binding result: binds
[2]
  binding result: binds
[3]
  binding result: no binding (tested: 1 μg/mL)
[4]
  binding result: no binding (tested: 1 μg/mL)

B2: S1E2 Fab (Fab, V domains shown)
VH: QMQLQESGPGLVKPSQSLSLTCSVTGYSITSGYYWNWIRQFSGNKLEWMGYINHDGSKNYNPSLKNRISITRDTSKNQFFLKLNSVTTEDTATYYCARDYGSYYYPMDYWGQGTSVTVSS
VL: EIVLTQSPPIMSASPGEKVTITCSASSSVTFMHWFQQKPGTSPKLWIFSTSNLASGVPARFSGSGSGTSYSLTISRMEAEDAATYYCQQRSSYPFTFGSGTKLEIK
[5]
  binding result: binds

B3: S2B10 mAb (IgG) (antibody, V domains shown)
VH: QMQLQESGPGLVKPSQSLSLTCTVTGYSITSDYAWNWIRQFPRNKLEWMGFITYSGSTSYNPSLKSRISLTRDTSKNQFFLQLSSVTTEDTATYYCARSGANWDWFAYWGQGTLVTVSA
VL: DIQMTQSPASLAVSLGQRATISCRASESVDNYGNSFMHWYQQKPGQPPKLLIYRASKLESGIPARFSGSGSRTDFTLTINPVEADDVATYHCQQSNEDPWTFGGGTKLEIK
[1]
  binding result: binds
[2]
  binding result: binds
[3]
  binding result: no binding (tested: 1 μg/mL)
[4]
  binding result: no binding (tested: 1 μg/mL)

B4: S2B10 Fab (Fab, V domains shown)
VH: QMQLQESGPGLVKPSQSLSLTCTVTGYSITSDYAWNWIRQFPRNKLEWMGFITYSGSTSYNPSLKSRISLTRDTSKNQFFLQLSSVTTEDTATYYCARSGANWDWFAYWGQGTLVTVSA
VL: DIQMTQSPASLAVSLGQRATISCRASESVDNYGNSFMHWYQQKPGQPPKLLIYRASKLESGIPARFSGSGSRTDFTLTINPVEADDVATYHCQQSNEDPWTFGGGTKLEIK
[5]
  binding result: binds

B5: human ephrin-B2 (residues 27-167) (receptor)
chain: SIVLEPIYWNSSNSKFLPGQGLVLYPQIGDKLDIICPKVDSKTVGQYEYYKVYMVDKDQADRCTIKKENTPLLNCAKPDQDIKFTIKFQEFSPNLWGLEFQKNKDYYIISTSNGSLEGLDNQEGGVCQTRAMKILMKVGQD
[6]
  binding result: binds

B6: LN3D3 Fab (Fab, V domains shown)
VH: EVKLEESGPELVKPGASVKMSCKASGYTFTNYVMHWVKQKPGQGLEWIGYVNPYNDGTQYNEKFRDKATLTSDKSSSTVYMELNSLTSEDSAVYYCTRGDYPYWVFEVWGAGTTVTVSS
VL: EIQMTQSPATLSVTPGDSVSLSCRASQSISNNLHWYQQKSHESPRLLIKYASQSISGIPSRFSGSGSGTDFTLSINNLETEDFGMYFCQHSDSWPFTFGSGTKLEIK
[5]
  binding result: binds

B7: LN3D3 mAb (IgG) (antibody, V domains shown)
VH: EVKLEESGPELVKPGASVKMSCKASGYTFTNYVMHWVKQKPGQGLEWIGYVNPYNDGTQYNEKFRDKATLTSDKSSSTVYMELNSLTSEDSAVYYCTRGDYPYWVFEVWGAGTTVTVSS
VL: EIQMTQSPATLSVTPGDSVSLSCRASQSISNNLHWYQQKSHESPRLLIKYASQSISGIPSRFSGSGSGTDFTLSINNLETEDFGMYFCQHSDSWPFTFGSGTKLEIK
[1]
  binding result: binds
[2]
  binding result: binds
[3]
  binding result: no binding (tested: 1 μg/mL)
[4]
  binding result: no binding (tested: 1 μg/mL)

B8: LN1F9 Fab (Fab, V domains shown)
VH: EVKLVESGGGLVKPGGSLKLSCAASGFSFRNYAMSWVRQSPEKRLEWVAEVSSGGGYTYYPDTVTGRFTISRDNAKNILYLEMSSLRSEDTAMYYCTRDPDSSGYLAWFAYWGQGTLVTVSA
VL: DILLTQSPASLSASVGETVTITCRASENINSYLAWYQQKQGKSPQLLVYNAKTLAEGVPSRFSGSGSDTQFSLKINTLQPEDFGTYYCQHHSGTPYTFGGGTKLEIK
[7]
  binding result: binds

B9: LN1F9 mAb (IgG) (antibody, V domains shown)
VH: EVKLVESGGGLVKPGGSLKLSCAASGFSFRNYAMSWVRQSPEKRLEWVAEVSSGGGYTYYPDTVTGRFTISRDNAKNILYLEMSSLRSEDTAMYYCTRDPDSSGYLAWFAYWGQGTLVTVSA
VL: DILLTQSPASLSASVGETVTITCRASENINSYLAWYQQKQGKSPQLLVYNAKTLAEGVPSRFSGSGSDTQFSLKINTLQPEDFGTYYCQHHSGTPYTFGGGTKLEIK
[1]
  binding result: binds
[2]
  binding result: binds
[3]
  binding result: no binding (tested: 1 μg/mL)
[4]
  binding result: no binding (tested: 1 μg/mL)
[8]
  binding result: binds
